Data published in the supplement of paper PMC9233669.
This sample holds only a part of the variants without activity.

What was measured:
biotinyl-Ile-oxazolone = test: self-aminoacylation, catalytic enhancement (BIO) (fold over background); higher = more active; k-Seq, kA / k0A0; sequences stand for … in GGGAAUGGAUCCACAUCUACGAAUUC…UUCACUGCAGACUUGACGAAGCUG
Outline: (§1)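 Mutagenized RNA pools with a 21-nt variable region (0.43 μM) were reacted with each biotinyl-aminoacyl-oxazolone at 2–1250 μM for 90 minutes at room temperature, in 50 μL HEPES/NaCl/KCl/MgCl2/CaCl2 buffer containing 5% acetonitrile at pH 6.9–7.0. RNA captured on streptavidin was quantified by triplicate qPCR and by Illumina sequencing. The fraction reacted for each sequence was fit to a pseudo-first-order model with bootstrapping, and catalytic enhancement is the median kA divided by the uncatalyzed rate, taken as the low-activity peak of a bimodal Gaussian fit.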

biotinyl-Met-oxazolone = test: self-aminoacylation, catalytic enhancement (BMO) (fold over background); higher = more active; k-Seq, kA / k0A0; sequences stand for … in GGGAAUGGAUCCACAUCUACGAAUUC…UUCACUGCAGACUUGACGAAGCUG
Outline: as §1

biotinyl-Phe-oxazolone = test: self-aminoacylation, catalytic enhancement (BFO) (fold over background); higher = more active; k-Seq, kA / k0A0; sequences stand for … in GGGAAUGGAUCCACAUCUACGAAUUC…UUCACUGCAGACUUGACGAAGCUG
Outline: as §1

biotinyl-Trp-oxazolone = test: self-aminoacylation, catalytic enhancement (BWO) (fold over background); higher = more active; k-Seq, kA / k0A0; sequences stand for … in GGGAAUGGAUCCACAUCUACGAAUUC…UUCACUGCAGACUUGACGAAGCUG
Outline: as §1

biotinyl-Val-oxazolone = test: self-aminoacylation, catalytic enhancement (BVO) (fold over background); higher = more active; k-Seq, kA / k0A0; sequences stand for … in GGGAAUGGAUCCACAUCUACGAAUUC…UUCACUGCAGACUUGACGAAGCUG
Outline: as §1

biotinyl-Leu-oxazolone = test: self-aminoacylation, catalytic enhancement (BLO) (fold over background); higher = more active; k-Seq, kA / k0A0; sequences stand for … in GGGAAUGGAUCCACAUCUACGAAUUC…UUCACUGCAGACUUGACGAAGCUG
Outline: as §1

| Sequence | self-aminoacylation (biotinyl-Ile-oxazolone) | self-aminoacylation (biotinyl-Met-oxazolone) | self-aminoacylation (biotinyl-Phe-oxazolone) | self-aminoacylation (biotinyl-Trp-oxazolone) | self-aminoacylation (biotinyl-Val-oxazolone) | self-aminoacylation (biotinyl-Leu-oxazolone) |
| --- | --- | --- | --- | --- | --- | --- |
| AUUCACCUAGGGCAUCGGCUG [Fam2.2 aminoacylation ribozyme variant] | 1.75 | 2.03 | 7.35 | 1.64 | 2.01 | 2.42 |
| AUUCAACUAGGUCAUCGGGUA [Fam2.2 aminoacylation ribozyme variant] | 1.78 | 2.01 | 7.29 | 2.89 | 2.19 | 2.16 |
| AUUCCCCUGGUCAUCGAGCGA [Fam2.1 aminoacylation ribozyme variant] | 2.14 | 2.63 | 8.04 | 1.53 | 2.17 | 2.75 |
| AAGUUUGCGAAUAGUCGCAAC [Fam3.1 aminoacylation ribozyme variant] | 1.66 | 1.33 | 7.2 | 1.46 | 1.4 | 1.32 |
| CUUACCCUGGUCAUCAAGUGA [Fam2.1 aminoacylation ribozyme variant] | 1.67 | 2.58 | 4.44 | 3.4 | 1.93 | 2.58 |
| ACUCACCUAGGUCAUCUGGUG [Fam2.2 aminoacylation ribozyme variant] | 1.68 | 1.87 | 6.43 | 2.35 | 1.57 | 2.03 |
| AUGACCCUUGUCAUCGAGUGA [Fam2.1 aminoacylation ribozyme variant] | 3.06 | 6.11 | 31.3 | 7 | 3.19 | 6.36 |
| AUUCACCGAGGUCAGCGGGUG [Fam2.2 aminoacylation ribozyme variant] | 5.26 | 5.57 | 38.8 | 6.61 | 4.67 | 6.67 |
| AAACUUGCUAAUAGUCGCAAG [Fam3.1 aminoacylation ribozyme variant] | 2.62 | 1.76 | 2.21 | 4.6 | 1.97 | 1.29 |
| AUUCACCUCGGUCAUCGGGUU [Fam2.2 aminoacylation ribozyme variant] | 2.15 | 2.44 | 13.3 | 2.53 | 2.41 | 2.47 |
| AUUCAUCUAGGUCAUCGGGUG [Fam2.2 aminoacylation ribozyme variant] | 4.88 | 7.46 | 39.2 | 7.12 | 4.7 | 9.76 |
| CCACACCUUAAGCAAUCGGUC [Fam1B.1 aminoacylation ribozyme variant] | 1.16 | 1.15 | 0.93 | 0.714 | 1.19 | 1.03 |
| CCAUACUUAAAGCAAUCGGUC [Fam1B.1 aminoacylation ribozyme variant] | 0.92 | 0.804 | 0.813 | 0.674 | 0.904 | 0.802 |
| AUUUACCUAGAUCAUCGGGUG [Fam2.2 aminoacylation ribozyme variant] | 2.17 | 2.35 | 12.3 | 3.38 | 1.88 | 3 |
| CUAGUUCAAACAAUGGGUCUG [Fam1A.1 aminoacylation ribozyme variant] | 1.14 | 1.1 | 0.792 | 0.678 | 0.851 | 1.08 |
| AUUCACCUAGGUCAUCGGCUG [Fam2.2 aminoacylation ribozyme variant] | 1.74 | 1.73 | 4.96 | 1.49 | 1.91 | 1.91 |
| AUUCACCUAGCUAAUCGGGUG [Fam2.2 aminoacylation ribozyme variant] | 1.6 | 1.93 | 4.49 | 1.85 | 1.62 | 2.05 |
| CUACUUCAAACACUCUGUCUG [Fam1A.1 aminoacylation ribozyme variant] | 0.797 | 0.608 | 0.709 | 0.678 | 0.724 | 0.547 |
| AAGUUUGCCAAUAGUCACAAG [Fam3.1 aminoacylation ribozyme variant] | 1.55 | 1.56 | 1.1 | 1.04 | 1.23 | 1.07 |
| AUUCACCUAGCUCAUCGGAUG [Fam2.2 aminoacylation ribozyme variant] | 0.779 | 0.609 | 0.472 | 0.452 | 0.82 | 0.772 |
| CCAUACUUCAAGCUAUCGGUC [Fam1B.1 aminoacylation ribozyme variant] | 1.05 | 0.801 | 0.984 | 0.697 | 1.09 | 0.952 |
| CCAGACUUCAAGCAAUCGGCC [Fam1B.1 aminoacylation ribozyme variant] | 3.33 | 4.19 | 17 | 6.87 | 3.43 | 4.53 |
| AUUCACCGAGGACAUCGGGUG [Fam2.2 aminoacylation ribozyme variant] | 3.59 | 5.56 | 35.9 | 5.74 | 3.78 | 6.02 |
| CCACAUUUCAAGCAAUCGGUG [Fam1B.1 aminoacylation ribozyme variant] | 6.23 | 8.9 | 59.1 | 9.35 | 5.89 | 12.9 |
| AUUACCCUGGUGAUCGAGUGU [Fam2.1 aminoacylation ribozyme variant] | 1.51 | 2.12 | 5.19 | 2.96 | 1.57 | 2.31 |
| AUUACCCAGGUCAUCGAUUGA [Fam2.1 aminoacylation ribozyme variant] | 0.872 | 0.825 | 0.642 | 0.511 | 0.759 | 0.826 |
